Test results from IntAct's records for PubMed 25910212.

B1: Emerin (Homo sapiens), P50402 (parent)
chain: MDNYADLSDTELTTLLRRYNIPHGPVVGSTRRLYEKKIFEYETQRRRLSPPSSSAASSYSFSDLNSTRGDADMYDLPKKEDALLYQSKGYNDDYYEESYFTTRTYGEPESAGPSRAVRQSVTSFPDADAFHHQVHDDDLLSSSEEECKDRERPMYGRDSAYQSITHYRPVSASRSSLDLSYYPTSSSTSFMSSSSSSSSWLTRRAIRPENRAPGAGLGQDRQVPLWGQLLLFLVFVIVLFFIYHFMQAEEGNPF
partner: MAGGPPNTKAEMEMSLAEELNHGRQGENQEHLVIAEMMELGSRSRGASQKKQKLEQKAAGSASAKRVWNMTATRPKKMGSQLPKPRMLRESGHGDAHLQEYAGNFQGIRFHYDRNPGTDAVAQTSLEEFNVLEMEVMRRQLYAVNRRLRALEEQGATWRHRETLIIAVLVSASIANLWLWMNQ
B2: Synaptogyrin-1 (Homo sapiens), O43759-2 (parent)
chain: MEGGAYGAGKAGGAFDPYTLVRQPHTILRVVSWLFSIVVFGSIVNEGYLNSASEGEEFCIYNRNPNACSYGVAVGVLAFLTCLLYLALDVYFPQISSVKDRKKAVLSDIGVSAFWAFLWFVGFCYLANQWQVSKPKDNPLNEGTDAARAAIAFSFFSIFTWSLTAALAVRRFKDLSFQEEYSTLFPASAQP
partner: B1 partner
B3: EF-hand domain-containing protein 1 (Homo sapiens), Q5JVL4 (parent)
chain: MVSNPVHGLPFLPGTSFKDSTKTAFHRSQTLSYRNGYAIVRRPTVGIGGDRLQFNQLSQAELDELASKAPVLTYGQPKQAPPADFIPAHVAFDKKVLKFDAYFQEDVPMSTEEQYRIRQVNIYYYLEDDSMSVIEPVVENSGILQGKLIKRQRLAKNDRGDHYHWKDLNRGINITIYGKTFRVVDCDQFTQVFLESQGIELNPPEKMALDPYTELRKQPLRKYVTPSDFDQLKQFLTFDKQVLRFYAIWDDTDSMYGECRTYIIHYYLMDDTVEIREVHERNDGRDPFPLLMNRQRVPKVLVENAKNFPQCVLEISDQEVLEWYTAKDFIVGKSLTILGRTFFIYDCDPFTRRYYKEKFGITDLPRIDVSKREPPPVKQELPPYNGFGLVEDSAQNCFALIPKAPKKDVIKMLVNDNKVLRYLAVLESPIPEDKDRRFVFSYFLATDMISIFEPPVRNSGIIGGKYLGRTKVVKPYSTVDNPVYYGPSDFFIGAVIEVFGHRFIILDTDEYVLKYMESNAAQYSPEALASIQNHVRKREAPAPEAESKQTEKDPGVQELEALIDTIQKQLKDHSCKDNIREAFQIYDKEASGYVDRDMFFKICESLNVPVDDSLVKELIRMCSHGEGKINYYNFVRAFSN
partner: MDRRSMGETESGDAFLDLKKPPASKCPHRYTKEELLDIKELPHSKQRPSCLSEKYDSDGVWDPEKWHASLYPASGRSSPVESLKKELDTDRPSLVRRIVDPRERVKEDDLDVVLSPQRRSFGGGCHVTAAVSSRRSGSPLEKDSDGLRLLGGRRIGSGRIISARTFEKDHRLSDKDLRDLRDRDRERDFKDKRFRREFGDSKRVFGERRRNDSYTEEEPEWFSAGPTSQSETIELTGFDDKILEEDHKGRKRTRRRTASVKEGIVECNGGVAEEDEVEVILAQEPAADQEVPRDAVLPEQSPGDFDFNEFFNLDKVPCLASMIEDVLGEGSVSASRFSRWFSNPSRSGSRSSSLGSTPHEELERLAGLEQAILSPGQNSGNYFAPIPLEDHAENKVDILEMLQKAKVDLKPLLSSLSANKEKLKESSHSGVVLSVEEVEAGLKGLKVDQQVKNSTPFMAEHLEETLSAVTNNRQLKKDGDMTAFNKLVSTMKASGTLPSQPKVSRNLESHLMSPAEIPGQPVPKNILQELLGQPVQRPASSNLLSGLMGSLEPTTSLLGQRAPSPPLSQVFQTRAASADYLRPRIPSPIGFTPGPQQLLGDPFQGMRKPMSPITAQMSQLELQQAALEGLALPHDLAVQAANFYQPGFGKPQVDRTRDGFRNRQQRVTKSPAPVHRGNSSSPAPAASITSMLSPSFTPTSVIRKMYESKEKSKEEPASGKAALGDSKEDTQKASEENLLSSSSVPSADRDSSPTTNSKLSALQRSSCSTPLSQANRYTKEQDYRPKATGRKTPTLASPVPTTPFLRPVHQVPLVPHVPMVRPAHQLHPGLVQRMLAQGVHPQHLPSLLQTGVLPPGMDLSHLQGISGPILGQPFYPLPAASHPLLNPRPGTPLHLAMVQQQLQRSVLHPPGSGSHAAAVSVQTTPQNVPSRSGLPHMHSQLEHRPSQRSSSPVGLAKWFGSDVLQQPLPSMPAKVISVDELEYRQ

Variants of: B1
Details: with fate1_human FATE1, Q969F0

Row | Variant | effect of a mutation on the interaction
1 | MDNYADLSDTELTTLLRRYNIPHGPVVGSTRRLYEKKIFEYETQRRRLSPPSSSAASSYSFSDLNSTRGDAVMYDLPKKEDALLYQSKGYNDDYYEESYFTTRTYGEPESAGPSRAVRQSVTSFPDADAFHHQVHDDDLLSSSEEECKDRERPMYGRDSAYQSITHYRPVSASRSSLDLSYYPTSSSTSFMSSSSSSSSWLTRRAIRPENRAPGAGLGQDRQVPLWGQLLLFLVFVIVLFFIYHFMQAEEGNPF [D72V] | with no effect

Variants of: B2
Details: with fate1_human FATE1, Q969F0

Row | Variant | effect of a mutation on the interaction
2 | MEGGAYGAGKAGGAFDPYTLVRQPHTILRVVSWLFSIVVFGSIVNEGYLNSASEGEEFCIYNRNPNACSYGVAVGVLAFLTCLLYLALDVYFPQISSVEDRKKAVLSDIGVSAFWAFLWFVGFCYLANQWQVSKPKDNPLNEGTDAARAAIAFSFFSIFTWSLTAALAVRRFKDLSFQEEYSTLFPASAQP [K99E] | disrupting interaction strength

Variants of: B3
Details: with 4et_human EIF4ENIF1, Q9NRA8

Row | Variant | effect of a mutation on the interaction
3 | T508R | disrupting interaction strength
4 | R221H | disrupting interaction strength
5 | A394S | disrupting interaction strength
6 | P77T | disrupting interaction strength
7 | M448T | with no effect
8 | R159W | with no effect
